Results published in patent publication US20200216522A1 (DENALI THERAPEUTICS, published 2020).

B1: chimeric IgG clone 1D10 (antibody, V domains shown)
VH: EVQLQQSGAELVRPGASVKLSCTASGFNIKDSLMHWMKQRPEQGLEWIGWIDPEDGETKYAPKFQDKATLTADTSSNAAYLQLSSLTSEDTAIYYCVRGDWDGGYWGQGTTLTVSS
VL: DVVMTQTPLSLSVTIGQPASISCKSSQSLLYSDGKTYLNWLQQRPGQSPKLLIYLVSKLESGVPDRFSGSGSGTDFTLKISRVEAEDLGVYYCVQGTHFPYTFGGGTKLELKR
notes: mouse-human chimeric IgG from HEK293
B2: chimeric IgG clone 1G7 (antibody, V domains shown)
VH: EVQLQQSGAEVVRPGASVKLSCTTSGFNIKDSLMHWLKQRPEQGLEWIGWIDPEDGETKYAPKFQDKATITADTSSNTAYLQLSSLTSGDTAIYYCARRDWEGPWGQGTLVTVSA
VL: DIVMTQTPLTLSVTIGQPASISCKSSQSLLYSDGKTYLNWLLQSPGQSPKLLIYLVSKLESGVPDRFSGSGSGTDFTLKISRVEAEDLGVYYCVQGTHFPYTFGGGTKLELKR
notes: as for B1

Columns and labels:
Assay in all cases: peptide array
[1] = target: T1, Peptide_017 (human)
T1 peptide: DEGAPGKQAAAQPHT
Method: (§1) Chimeric IgG antibodies were diluted to a concentration of 5 μg/mL in 3% bovine serum albumin in Tris-buffered saline (10 mM Tris, pH 7.5, 150 mM NaCl) supplemented with 0.05% Tween®20 (3% BSA-TBST). Diluted antibodies were allowed to bind to peptides printed onto slides for 2 hours at room temperature as described in the PepStar™ user manual (JPT Technologies). Following extensive washing (5×5 minutes with TBST), slides were incubated with secondary antibodies goat anti-human IgG, Alexa Fluor 568 conjugate, 1 μg/mL in 3% BSA-TBST) for 1 hour at room temperature. After extensive washing, (5×5 minutes with TBST, then 5×5 minutes with ultrapure water), slides were dried overnight and imaged using an Opera Phenix™ system in the 568 nm channel. Images were aligned to peptide array definition files using Galviewer software obtained from JPT Technologies and ImageJ software with control human IgG serving as landmarks.
(§2) Full-length human Tau (encoded by the microtubule-associated protein Tau isoform 2 gene (MAPT), amino acid sequence NCBI Reference Sequence No. NP_005901.2, SEQ ID NO: 1, variant designation “2N4R”) was divided into 15 amino acid peptides, offset by 5 amino acids (overlapping by 10 amino acids). Peptides were synthesized and covalently attached to silica slides in triplicate with a spot size of 0.5 mm (obtained from JPT Technologies, Berlin, Germany). Antibodies muIgG were diluted to a concentration of 30 μg/mL in 3% bovine serum albumin in Tris-buffered saline (10 mM Tris, pH 7.5, 150 mM NaCl) supplemented with 0.05% Tween® 20 (3% BSA-TBST). Diluted antibodies were allowed to bind to peptides printed onto slides for 2 hours at room temperature as described in the Pepstar™ user manual (JPT Technologies). Following extensive washing (5×5 min TBST), slides were incubated with secondary antibodies (donkey anti-mouse IgG, Alexafluor 647 conjugate, 5 μg/mL in 3% BSA-TBST) for 1 hour at room temperature. After extensive washing, (5×5 minutes TBST, 5×5 minutes ultrapure water), slides were dried under a stream of nitrogen and imaged on the Opera Phenix in the 647 nm channel. Images were aligned to peptide array definition file using Galviewer software obtained from JPT Technologies and ImageJ software with control mouse IgG serving as landmarks.

[2] = target: T2, Peptide_020 (human)
T2 peptide: EIPEGTTAEEAGIGD
Method: as §1, §2

[3] = target: T3, Peptide_070 (human)
T3 peptide: FKDRVQSKIGSLDNI
Method: as §1, §2

[4] = target: T4, Peptide_002 (human)
T4 peptide: QEFEVMEDHAGTYGL
Method: as §1, §2

[5] = target: T5, Peptide_079 (human)
T5 peptide: EIVYKSPVVSGDTSP
Method: as §1, §2

[6] = target: T6, Peptide_053 (human)
T6 peptide: GSTENLKHQPGGGKV
Method: as §1, §2

[7] = target: T7, Peptide_068 (human)
T7 peptide: QVEVKSEKLDFKDRV
Method: as §1, §2

[8] = target: T8, Peptide_024 (human)
T8 peptide: DEAAGHVTQARMVSK
Method: as §1, §2

[9] = target: T9, Peptide_019 (human)
T9 peptide: AQPHTEIPEGTTAEE
Method: as §1, §2

[10] = target: T10, Peptide_065 (human)
T10 peptide: KCGSLGNIHHKPGGG
Method: as §1, §2

[11] = target: T11, Peptide_055 (human)
T11 peptide: GGGKVQIINKKLDLS
Method: as §1, §2

[12] = target: T12, Peptide_052 (human)
T12 peptide: VKSKIGSTENLKHQP
Method: as §1, §2

[13] = target: T13, Peptide_051 (human)
T13 peptide: PDLKNVKSKIGSTEN
Method: as §1, §2

[14] = target: T14, Peptide_084 (human)
T14 peptide: SIDMVDSPQLATLAD
Method: as §1, §2

[15] = target: T15, Peptide_057 (human)
T15 peptide: KLDLSNVQSKCGSKD
Method: as §1, §2

[16] = target: T16, Peptide_085 (human)
T16 peptide: DSPQLATLADEVSAS
Method: as §1, §2

[17] = target: T17, Peptide_009 (human)
T17 peptide: AGLKESPLQTPTEDG
Method: as §1, §2

[18] = target: T18, Peptide_058 (human)
T18 peptide: NVQSKCGSKDNIKHV
Method: as §1, §2

[19] = target: T19, Peptide_043 (human)
T19 peptide: RTPSLPTPPTREPKK
Method: as §1, §2

[20] = target: T20, Peptide_078 (human)
T20 peptide: TDHGAEIVYKSPVVS
Method: as §1, §2

[21] = target: T21, Peptide_040 (human)
T21 peptide: GYSSPGSPGTPGSRS
Method: as §1, §2

[22] = target: T22, Peptide_027 (human)
T22 peptide: SKDGTGSDDKKAKGA
Method: as §1, §2

[23] = target: T23, Peptide_036 (human)
T23 peptide: PPAPKTPPSSGEPPK
Method: as §1, §2

[24] = target: T24, Peptide_039 (human)
T24 peptide: SGDRSGYSSPGSPGT
Method: as §1, §2

[25] = target: T25, Peptide_018 (human)
T25 peptide: GKQAAAQPHTEIPEG
Method: as §1, §2

[26] = target: T26, Peptide_056 (human)
T26 peptide: QIINKKLDLSNVQSK
Method: as §1, §2

[27] = target: T27, Peptide_007 (human)
T27 peptide: MHQDQEGDTDAGLKE
Method: as §1, §2

[28] = target: T28, Peptide_049 (human)
T28 peptide: SRLQTAPVPMPDLKN
Method: as §1, §2

[29] = target: T29, Peptide_073 (human)
T29 peptide: THVPGGGNKKIETHK
Method: as §1, §2

[30] = target: T30, Peptide_041 (human)
T30 peptide: GSPGTPGSRSRTPSL
Method: as §1, §2

[31] = target: T31, Peptide_083 (human)
T31 peptide: VSSTGSIDMVDSPQL
Method: as §1, §2

[32] = target: T32, Peptide_004 (human)
T32 peptide: GTYGLGDRKDQGGYT
Method: as §1, §2

[33] = target: T33, Peptide_050 (human)
T33 peptide: APVPMPDLKNVKSKI
Method: as §1, §2

[34] = target: T34, Peptide_022 (human)
T34 peptide: AGIGDTPSLEDEAAG
Method: as §1, §2

[35] = target: T35, Peptide_015 (human)
T35 peptide: TAEDVTAPLVDEGAP
Method: as §1, §2

| Binder | binding result [1] | binding result [2] | binding result [3] | binding result [4] | binding result [5] | binding result [6] | binding result [7] | binding result [8] | binding result [9] | binding result [10] | binding result [11] | binding result [12] | binding result [13] | binding result [14] | binding result [15] | binding result [16] | binding result [17] | binding result [18] | binding result [19] | binding result [20] | other results |
| --- | --- | --- | --- | --- | --- | --- | --- | --- | --- | --- | --- | --- | --- | --- | --- | --- | --- | --- | --- | --- | --- |
| B1 | no binding (tested: 5 ug/mL) | no binding (tested: 5 ug/mL) | binds | no binding (tested: 5 ug/mL) | no binding (tested: 5 ug/mL) | no binding (tested: 5 ug/mL) | no binding (tested: 5 ug/mL) | no binding (tested: 5 ug/mL) | no binding (tested: 5 ug/mL) | no binding (tested: 5 ug/mL) | no binding (tested: 5 ug/mL) | binds | binds | no binding (tested: 5 ug/mL) | no binding (tested: 5 ug/mL) | no binding (tested: 5 ug/mL) | no binding (tested: 5 ug/mL) | no binding (tested: 5 ug/mL) | no binding (tested: 5 ug/mL) | no binding (tested: 5 ug/mL) | binding result [21]: no binding (tested: 5 ug/mL); binding result [22]: no binding (tested: 5 ug/mL); binding result [23]: no binding (tested: 5 ug/mL); binding result [24]: no binding (tested: 5 ug/mL); binding result [25]: no binding (tested: 5 ug/mL); binding result [26]: no binding (tested: 5 ug/mL); binding result [27]: no binding (tested: 5 ug/mL); binding result [28]: no binding (tested: 5 ug/mL); binding result [29]: no binding (tested: 5 ug/mL); binding result [30]: no binding (tested: 5 ug/mL); binding result [31]: no binding (tested: 5 ug/mL); binding result [32]: no binding (tested: 5 ug/mL); binding result [33]: no binding (tested: 5 ug/mL); binding result [34]: no binding (tested: 5 ug/mL); binding result [35]: no binding (tested: 5 ug/mL) |
| B2 | no binding (tested: 5 ug/mL) | no binding (tested: 5 ug/mL) | binds | no binding (tested: 5 ug/mL) | no binding (tested: 5 ug/mL) | no binding (tested: 5 ug/mL) | no binding (tested: 5 ug/mL) | no binding (tested: 5 ug/mL) | no binding (tested: 5 ug/mL) | no binding (tested: 5 ug/mL) | no binding (tested: 5 ug/mL) | binds | binds | no binding (tested: 5 ug/mL) | no binding (tested: 5 ug/mL) | no binding (tested: 5 ug/mL) | no binding (tested: 5 ug/mL) | no binding (tested: 5 ug/mL) | no binding (tested: 5 ug/mL) | no binding (tested: 5 ug/mL) | binding result [21]: no binding (tested: 5 ug/mL); binding result [22]: no binding (tested: 5 ug/mL); binding result [23]: no binding (tested: 5 ug/mL); binding result [24]: no binding (tested: 5 ug/mL); binding result [25]: no binding (tested: 5 ug/mL); binding result [26]: no binding (tested: 5 ug/mL); binding result [27]: no binding (tested: 5 ug/mL); binding result [28]: no binding (tested: 5 ug/mL); binding result [29]: no binding (tested: 5 ug/mL); binding result [30]: no binding (tested: 5 ug/mL); binding result [31]: no binding (tested: 5 ug/mL); binding result [32]: no binding (tested: 5 ug/mL); binding result [33]: no binding (tested: 5 ug/mL); binding result [34]: no binding (tested: 5 ug/mL); binding result [35]: no binding (tested: 5 ug/mL) |
